Source: the DeepSol protein solubility set

Experiment: soluble on expression in E. coli; label from the status in PepcDB or PDB records

Sequence	soluble on expression in E. coli
MGSDKIHHHHHHMIVTEYELLVCLAEELNMRKSAEKLFLSQPALSQRLQTIESRWNTKIFIRTQKGLLLTPEGEAIVRHASSVIEREHTIQEKLEAMEGVVRGTLRIACASVVAQMWLPRVLKAFSRTYPNVQISLVTGWSSEVTQQLAAGNVHIGIVRGSSTWKSVQKPLFNDKLILVDTEITKIEEVFQTNRPFIQFRSDSNYYQVIQDYWQRNFGKMPRQAMLMDQMETSRQMALNGIGFAILPEVTMIGYTDKINKIPLTEKDGSILSRETNLLTYEQSLSLPQVKAFLEITDKFLEQVK	not soluble
MGSDKIHHHHHHMIYISKEINTPLYDQIYRQIQGDIISGNLSPGTLLPGIRTLAKTLGVARNTVDKAYTQLAVEGYIIPRKGAGFAVESIRDSKKSAELQPLSSGVSAHPGHEKAEKKLPYDFQYGSFPEEYFPKTAWKKHMLEVLALPHLSAQMTQYQDKQGNLSLRCELQNYLYQTRGVVCTEDQILIGCGLHYSLDTLCKLFAGHKRIAMEEPGYNGAKEVFQNNGFTIRHIPSTPYGLDLSQLKTLAVPIVYVTPSHQFPYGTVLPISKRRELLEWAAEENAYIIEDDYDSEYRYDANPIPSLQSIDGHDRVIYIGTFSKSLSPSLRINYMVLPKSLLPAYHQMFSTYSSPVTWLTQEVLASFLRSGDYTRHVRRMCAAYRKRHDVFVQQLSQHFGPNIVLHGQGAGLHFLVEFAEEVEAEGLIQMAEEAGVRVYPVTPFWSASEACPPNLLFAGYSLLNERQIQEGLRLLKEVWAPVLEIK	not soluble
MGSDKIHHHHHHMIYKVISKDEFRNFVDALVRANTSYGPRQVDTDRNGEPIYQFMPVSSASEIAFDYTVTTSSAKHFLMPFREELSKFSFRDGDWDQEVKYDAPPIVLVGLRPCDINAINILDEVMLKGPYPSPYYLARRKNTFIIGMDHLPLPDCFCRSMNRHTTDHGFNLFASDIGESYFLSINSSKAFNFLKEFETTEPTEEDDCKLIERRKLIKQSFKTNVEVTGLPVFLDLEFDSPIWKKWGDKCLNCGSCAMVCPTCYCYNVEEHFETNLESSSRQRRLYSCNLIDFAEVTGGHNFRPKNGDRLKYRYYHHYRGFAVNDNQQICVGCNRCGRACLAGINPKDVINDLRLEKESCVTCVSPSPAKT	not soluble
MGSDKIHHHHHHMKAGTQKTLTHSDLVEQGVRFLLASYVDLHGVPKAKAVPISHFDRMMNGSEMFTGAALDGVPQEISDEEVAAHPDMGSAIVLPWSKDIAWLPSDLYTQGEPFNACSRTILKKVRQQAAELGMAMQLGIEAEFFVLKDQEAGGFSPISTRHHLKKPAYDVARLLDNKPWLSELVEAMDSLDWGVYSFDHEDGIGQFEIDFSYFEVLRMADNFTFLRMMANEIARKHGGFASFMPKPYGDRAGSGAHFNISLTDINTGLNLFEPEQDDPRGCGLSTLGYQFIAGVLRHLPAICAVVAPTVNSYKRLVKQGSMSGFTWAPVFCCYGNNNRTNTIRIPLGGKRIEIRAVDSACNPYLGAAMILAAGLEGIRENLDPGDPHLDNMYEKTPEELASLGIRELPKTLEEAIDAFEADPLSRQVFGDQMFSAWTQYKREEWLSYITHVSDWEYDRYLKLF	not soluble
MGSDKIHHHHHHMKAQEVPSTTFTGGETVLTFKGGVHPPELKEWSKDKPIERAPLPQKVFVFLSNHAGNPAKPVVSPGDEVKTGQVIGEPEGFISAYLHSPVTGRVLEIKKILHPILGKPIEAIVIERTSDDEWVHIETGDFERMSKEEILEIIKKAGIVGLGGAMFPTHVKLSPPPEKKVDTLIVNGAECEPVLTIDHRLMLERAEDILQGILIMMKVLGVQKAVVGVESNKMDAYHNLKKVFKGYPVDVALLRTKYPQGAEKQLIYAITGRMVPRGGLPMDVGVVVQNVGTCVAVKEAVVDGKPLVERGMTVSGDAVKNQKNLIVRIGTPVKDVIDYCGGIDENTERVILGGPMMGISITNLDIPVMKGTSGITAFLPKKSRPQKPCIRCSECVQVCPMNLQPYLLYLLSTKRKYDEAVENGLMDCIECGSCTYTCPSKIEHVRYIKLAKTVYRATRRGRR	not soluble
MGSDKIHHHHHHMKAVVIGGGVFGSLIARELTKYDLEVTLIEKNLDVGWGVTKANSAVVHAGYDDPPESVRAQFCASGNAMYEDLSKELDFDFKRIGSFVVAFNDEELKELERLLKQGEENGVPGLTILERDEVLSMEPNLNPEVKYALYAPTAGITEPWMVAIAAVENAVQNGLKLVLGESVVGFEKVNGRVRKVHTSRGEYEADIVINCAGLHADEIAKLAGAEYVPLHPRKGEYILLDKKLQGLVKRVIFPTPTKISKGILVLPTVDGGILLGPTAEDLPEEMKDRPITTREGLEKVREFTRRLVPSLDFSLVVKTFSGLRPESPQKDFFIKVSETVKNFVNVMATRSPGLTAAPAVAKYVVEELIQEKMRIPLEKKKDFKPERKRIVHYSELPLEEWRREIERDPRAGRLVCFCNEVTEKEIVEAIRRGARTLNGVKFRTRAMFGRCQGGFCMARILKILERELGVDMSEIKMKSENSWVVNGKVRE	not soluble
MGSDKIHHHHHHMKAVYPGSFDPITLGHVDIIKRALSIFDELVVLVTENPRKKCMFTLEERKKLIEEVLSDLDGVKVDVHHGLLVDYLKKHGIKVLVRGLRAVTDYEYELQMALANKKLYSDLETVFLIASEKFSFISSSLVKEVALYGGDVTEWVPPEVARALNEKLKEGKR	soluble
MGSDKIHHHHHHMKCSQCNKKLCYTGKDCKKDITQKIIEEYKKEENLKIAEVSAYIEATYYMKKTRLEEIIEFCKLMEYKKIGIAFCIGLENEAKILAKILSKHFEVYSVCCKVCGIDKDVFKFKKINKGEKEAMCNPIGQAEILNEIGTDLNIIVGLCIGHDILFQKYSKAPTTTFIVKDRVLSHNTAGAIYTKYYLKKLLEGK	not soluble
MGSDKIHHHHHHMKDILKELKKKLSEEDFNKFNGRVTRVVGLTVESKGPDAFLGEMCKISLQNGKNALAEVVGFREESVILMPYEDVSGLKMGCEVIRTNKVLEVGVSRKMIGRVFDGLGRPIDGKPFVPEDRYPLINNPPNPLKRRRIKDPLPVGIRSIDGFITIGKGQRIGIFAGSGVGKSTLLGMIARNTTADINVLALIGERGREVREFIERDLGEEGLKRSILVVSTSDQPALARVKSLLTATSIAEFFRDLGYDVLLMVDSLTRWAMAQREVGLAVGEPPTTRGYPPSVFAGLPKILERAGNSDKGSITAIYTVLVEADDFNEPISDTVRSIVDGHIILSRRLAESNHYPAVDVLASVSRLMNDIVTEEHREAANRLRSLMSAYESAKDLIEIGAYKSGTNPLVDKAVEMKDEIDSFLKQGVFEKASFEETLQKLLDLYLRSLD	not soluble
MGSDKIHHHHHHMKDILVIGATGKQGNAVVKQLLEDGWYVSALTRNKNNRKLSDIGHPHLSIVEGDLSDNVSLQSAMKGKYGLYSIQPIVKDDVSEELRQGMKIIEIAEQENIQHIVYSTAGGVNRNRTGPHFEVLAKIENRLMESNINATVIKPSFFMDNFLRIAKVEDERITLPEFINPNIKFTMISSIDIAKIASYIFAHPQSFTHQSIEIGSDEVTLSEAATIFSEVTGKSTVIEGEFVSGVAEKQWLEEKGYEVDFELMAEINPTRLSLSDWLKVQNYNK	not soluble
MGSDKIHHHHHHMKDNYDAPESMLTGRVMYNGEALQLRGNEAVQLQLYQHGYAKHDPINVYVNQDGMYSANLFDGEYQMITKSGNGPWTSEGRDTINVTVAGNTVQDVEVTPYYLVRDAQMTLEGNKVNASFKVEKVAGGGIDRVFFMLSTTQFVNDAEHNVDRYDETDNLDAYDETGKLYTFATRDYTDNSMFQTALKRGTLFGRICIWPKGSDQGIYSKVIRLK	not soluble
MGSDKIHHHHHHMKDSFRTIYNGASVPLAEIPPVDINEFLQGILDSVDRGWRIVSYFGIPAPSSTALVCILANKAEGRLAAARTETSDSHVPSLSSLITQVQLFEREIAEQCGLIFDGHPWFKPVRFHHSFVPGRDAWDRTADEPLRVGVMDYYQVAGDEVHEVAVGPVHAGIIEPGHFRFQCHGEEVFHLEISLGYQHRGIEAGLAGGPHPRTLQVMETAAGDTTIGHGQAYCMIMESLGGIKAPPRAEVLRGIALELERLANHTGDLGAIAGDVGYLPTSSFCGRIRGDFLNMTAVLCGSRFGRGLLVPGGTIFDLTPGLRDDLLKRLAEARRDLTNAIELLWSSPSVMGRLEGTGTLTREQALELGLVGPAARACGIKRDVRLDYPFGIYRMTHLPVATVFHGDVCARTMIRWLEAQKSMDFIEEQLRQLPGGGHRVATAPCAGGRLAVALTEGWRGEICHVAVTDDAGRFSRYKIVDPSFHNWQGLALALRGQQISDFPLCNKSFNLSYCGFDL	not soluble
MGSDKIHHHHHHMKEISVVLVGIGGYGNKYVEYILREGREKGVRISGVVDPYPQNSRFYDELRSLNVPMYNTLEEFYSHHTADLAIISSPIHYHCEQTCTAVRNGSHVLCEKPAAATVKEVKKMIECREKYGKIVAIGYQWSYNPAVLKLKEDILAGKFGKPVLFKTLVLWPRDTAYYRRNSWAGKLKVNNRWVLDSVAGNATAHFLHNMLFLLGEKMEESAYPESMVAELYRANDIESFDTCALKMTVRKIPVLFFATHAVKERKGPVFEYRFEKARVICNYPEYPESEENLLVVYEDGRKEIYGPTDHGSMRKLWVVVDAARGRKEFICTLESAMAHTIAINGAHVSMKEIQDFPTELKRVEGEPPMIWVEGLKEAMERAYEEEKIFSELNLPWAKRGEEVKLENFEGLEGEITC	not soluble
MGSDKIHHHHHHMKEIVHLQSFLAVARTGSLTLAAEELHVTPSAVSHRLRQLEQRLGAKLLRRTPHGMALTGEGQRFKDRISDPIEAIEMALRPETGQEGPLTVSVMPWFASSWLMPRLKRFQLRCPDARIRIETSSQLSDLAHGHVTAALRFGRGDWPDIEVEPLFDEWVIPVASPDVVAQMGSNAQDPARWPRLPDPDDLWSSWFGDEVMGEAMRSSIELHDTSSLTEAAVNGMGVVLGRYTHVAPWLERGDLVTLASQWIRMPKRHYLVRSRHRPMHSCFPHFRRWLHDEVKKYQTSASSEFY	not soluble
MGSDKIHHHHHHMKEVTLGRGMIPGVVPSLAFRRDVSSIVAKRNPSPSIRASFPVRDLFHALARSAGDSDTHHAARKFLDERLVEVAHLESDLPHDIAALPQWLEQRCARVRSDYRAYLADRHAGQQARYFSCRAHALHFLQSMAPSRMVEGAWLYGFLKHWREARFAPMCRVYLRNLGDGDPGCNQVSLYQKLLDRNGCADWHGLDDQYYVQGAIRLALGHHVDHYLPEIIGFNLGYDQVSLPMLIAAYELSEQGVLPHYFTLHVTEDDAGASSAMKLLGSLLDTADSAKAREMLLHRVNNGYKLHRLGLDIPGIVASFDLQKAFLAVMQPCAAYLERVYRIDCMERGIRGRWTDSLPLPLLLQQLCNEGWMHPDEKGKTRLWQVLERGNLLPAPGYPQQVVVDWSARSDEYGKRLPHTDVADLVPVSPPPARRPEEAEEHWADFNESGSQADLMEHMIRLLSPLAHHTQEGLKAARIYKSILEKGSELYSQHSALFLWHGRV	not soluble
MGSDKIHHHHHHMKFLDVNQHLSELDEHIKVLKSYGDVFEAVEARITRVINMDGAFKGEGAKGVIYNHTHMQLPTIRSIRAFLISFSDTLEKMKANITEYEPASNGSVSENFWKNQLPKAYDRYEETLEEREATINQATAQVSHILHLGKLQTGDLYNSVDSARKHADTVLEGLYDLDQAGVELMAQVRTKMEELKATIRQVLDWNMTGGVTMKGVSIMEIGGYFANNATLHEKAPEVKVELLDLNPLVQYANDFPLRFKYDTMHSINESI	not soluble
MGSDKIHHHHHHMKFVIRDLNTKKVMKNAYRITKTKYETSLRVRVPGGLIDPESLAVVSKIASEYGNGQVHITTRQGFEILGINMEDMEEINKIIQPVIEKMNINQSEKNAGYPAAGTRNIAACIGNKVCPKAQYNTTEFAKRIEKAIFPNDLHFKVALTGCPNDCIKARMNDFGIIGMALPIYEKDRCVNCGACVKKCSKISVGALKTENNKVVRDKDKCIGCGECVLNCPTNAWTRDEKKYYRLAIMGRTGKKNPRLAEDFLLWVDEDSIIKIILNTYRYVEKYIDKDAPGGKEHIGYIIDRTGFMEFKKWALEGVELPEITKMYENIYWSGIKYL	not soluble
